Earlier results on 1 substance are cited in publication PMC7017177.

Usually Kd stands for the concentration at which binding is half-saturated.

This data set deals with CTLA-4 (Homo sapiens) (UniProt P16410).
UniProt P16410, sequence (P16410 36-161): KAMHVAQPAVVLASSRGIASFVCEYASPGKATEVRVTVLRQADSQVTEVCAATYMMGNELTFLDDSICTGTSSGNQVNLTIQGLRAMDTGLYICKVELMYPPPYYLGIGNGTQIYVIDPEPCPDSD

Tremelimumab: the dissociation constant (Kd) was 0.28 nM.
